T1: titin peptide on HLA-A*01:01 (human)
T1 peptide: ESDPIVAQY

T2: MAGE-A3 peptide on HLA-A*01:01 (human)
T2 peptide: EVDPIGHLY


Assays:
[1] = target: HLA-A1-restricted MAGE-A3EVD-MHC-multimer (MAGE-A3, …; immuneAware) (human); test: flow cytometry, MHC-multimer staining of TCR-transduced CD8+ T cells
[2] = target: T1, titin peptide on HLA-A*01:01; test: cytokine release
[3] = target: T2, MAGE-A3 peptide on HLA-A*01:01; test: multimer staining
From the text: CD8 T cells were isolated from PBMCs of a healthy donor and transduced with three different MAGE-A3-reactive TCRs. Transduced CD8⁺ T cells were enriched by FACS using the constant beta 1 region as a marker for transduction. After expansion of these cells, they were stained either with a MAGE-A3EVD-MHC-multimer (right panel) or antibodies against CD8 and Cß1 (left panel) and analyzed by flow cytometry. Populations were gated on single live cells.
Sequences of TCR-α and TCR-β chains of MAGE-A3-reactive T-cell clones were identified by Next Generation Sequencing and after exchanging the constant TCR regions by their minimal-murinized counterparts cloned into the retroviral vector pES.12-6. For the β chain the Cß1 sequence was used. PBMCs of three healthy donors were isolated by ficoll gradient centrifugation. CD8-positive Cß1-negative T-cells were enriched by negative magnetic selection (Miltenyi) and stimulated in non-tissue culture 24-well plates with plate bound antibodies specific for CD3 and CD28. Amphotropic retroviral particles were produced by transfection of HEK293T cells with the respective TCR encoding retroviral plasmid and two expression plasmids. Three days after stimulation, CD8-positive Cß1-negative T cells were transduced and on day ten enriched for transduced CD8⁺ cells by MACS-separation using the Cβ1 constant beta region as a marker for transduction and then expanded by REP. Transgenic T cells were stained either with an HLA-A1-restricted MAGE-A3EVD-MHC-multimer (MAGE-A3, […]; immuneAware) or antibodies against CD8 and the constant β1 region.

percent of T cells binding the MAGE-A3EVD-MHC-multimer [1] [%]	binding result [2]	binding result [3]	Binder
20			TCR_2 (MAGE-A3-reactive TCR, transgenically expressed on CD8+ T cells) (TCR, V domains shown) V domain 1: KQEVTQIPAALSVPEGENLVLNCSFTDSAIYNLQWFRQDPGKGLTSLLLIQSSQREQTSGRLNASLDKSSGRSTLYIAASQPGDSATYLCAVRWETSGSRLTFGEGTQLTVNP V domain 2: DSGVTQTPKHLITATGQRVTLRCSPRSGDLSVYWYQQSLDQGLQFLIQYYNGEERAKGNILERFSAQQFPDLHSELNLSSLELGDSALYFCASSVGGGYEQYFGPGTRLTVTE
	no recognition	recognises	TCR2 (TCR, V domains shown) Valpha: KQEVTQIPAALSVPEGENLVLNCSFTDSAIYNLQWFRQDPGKGLTSLLLIQSSQREQTSGRLNASLDKSSGRSTLYIAASQPGDSATYLCAVRWETSGSRLTFGEGTQLTVNP Vbeta: DSGVTQTPKHLITATGQRVTLRCSPRSGDLSVYWYQQSLDQGLQFLIQYYNGEERAKGNILERFSAQQFPDLHSELNLSSLELGDSALYFCASSVGGGYEQYFGPGTRLTVT
	no recognition	recognises	TCR1 (TCR, V domains shown) Valpha: KQEVTQIPAALSVPEGENLVLNCSFTDSAIYNLQWFRQDPGKGLTSLLLIQSSQREQTSGRLNASLDKSSGRSTLYIAASQPGDSATYLCAVIEYGNKLVFGAGTILRVKS Vbeta: DAMVIQNPRYQVTQFGKPVTLSCSQTLNHNVMYWYQQKSSQAPKLLFHYYDKDFNNEADTPDNFQSRRPNTSFCFLDIRSPGLGDAAMYLCATSWDRGYEQFFGPGTRLTVL
	no recognition	recognises	TCR3 (TCR, V domains shown) Valpha: AQKVTQAQTEISVVEKEDVTLDCVYETRDTTYYLFWYKQPPSGELVFLIRRNSFDEQNEISGRYSWNFQKSTSSFNFTITASQVVDSAVYFCALSEALGYSSASKIIFGSGTRLSIRP Vbeta: GAGVSQSPSNKVTEKGKDVELRCDPISGHTALYWYRQSLGQGLEFLIYFQGNSAPDKSGLPSDRFSAERTGGSVSTLTIQRTQQEDSAVYLCASSDPMSGAQETQYFGPGTRLLVL
